Laboratory results reported in the supplement of paper PMC10126150.
± gives the standard deviation of the averaged measurements.

System: ATP
Assay: switch fluorescence ratio, 500 uM ATP over buffer (Cy3 cluster intensity, sum of 5 cycles each) (fold (ratio)); higher = stronger signal-on switching upon ATP binding; sequences stand for … in TCGTCGGCAGCGTCAGATGTGTATAAGAGACAGTTTTTTTTTTTTTTTTTTTTTTTTT…TC
Details: aptamer strand: ATP DNA aptamer (quencher-CACCTGGGGGAGTATTGCGGAGGAAGG + anchor), 100 nM annealed; ATP concentration: 500 uM
Summary of the method: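 Cy3-labelled switching-strand clusters on a modified Illumina MiSeq flow-cell were annealed to 100 nM quencher-labelled ATP aptamer, imaged in selection buffer, then imaged after 15 min with 500 uM ATP at 22 °C. Five buffer/ATP cycles ran, with NaOH stripping and re-annealing between them. The fluorescence ratio is summed target-cycle over summed buffer-cycle Cy3 intensity per cluster, averaged per switch-domain sequence. Clusters outside 100-1000 RFU were excluded.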
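Note: ATP exposure 15 min at 22 °C before imaging.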

Sequence | switch fluorescence ratio
TAAGGAAAGT | 0.991 ± 0.027
TAAGGAAGGA | 0.9919 ± 0.0054
TAAGGAAGGG | 1.004 ± 0.0075
TAAGGAATGA | 0.993 ± 0.019
TAAGGAGAGG | 1.01 ± 0.027
TAAGGAGGGG | 0.981 ± 0.024
TAAGGATGTT | 0.974 ± 0.026
TAAGGCCACG | 0.9975 ± 0.0099
TAAGGCCCGG | 1 ± 0.03
TAAGGCCGGG | 0.9809 ± 0.0045
TAAGGCGGGC | 0.988 ± 0.032
TAAGGCTCGG | 0.994 ± 0.02
TAAGGCTGGG | 0.962 ± 0.034
TAAGGGAAAC | 0.963 ± 0.013
TAAGGGAATG | 0.985 ± 0.061
TAAGGGACAC | 1.05 ± 0.017
TAAGGGACGT | 1.01 ± 0.034
TAAGGGATAG | 0.985 ± 0.043
TAAGGGCGTT | 0.994 ± 0.022
TAAGGGGAAG | 1.04 ± 0.015
TAAGGGGATT | 1.03 ± 0.047
TAAGGGGGAG | 0.999 ± 0.01
TAAGGGGGTC | 0.981 ± 0.012
TAAGGGTCAG | 0.9953 ± 0.0012
TAAGGGTCCC | 0.965 ± 0.016
TAAGGGTGA | 1.03 ± 0.015

Sequence | switch fluorescence ratio
TAAGGGTTAT | 0.978 ± 0.023
TAAGGGTTTA | 1.06 ± 0.1
TAAGGTACAT | 1.09 ± 0.012
TAAGGTAGGG | 1.01 ± 0.013
TAAGGTGTTG | 1.04 ± 0.024
TAAGGTTCAC | 1.003 ± 0.0083
TAAGGTTTGG | 0.9862 ± 0.0092
TAAGTACCGG | 1.06 ± 0.038
TAAGTACGGC | 1.31 ± 0.02
TAAGTAGTTT | 1.02 ± 0.013
TAAGTATAGT | 1.0211 ± 0.00015
TAAGTCGGTC | 0.9827 ± 0.0011
TAAGTCGTGG | 0.9735 ± 0.0019
TAAGTGCGGA | 0.982 ± 0.011
TAAGTGGGGG | 0.979 ± 0.03
TAAGTGTTAG | 1.013 ± 0.0074
TAAGTTACAA | 1.09 ± 0.019
TAAGTTAGTA | 0.9786 ± 0.0091
TAAGTTCTAA | 0.979 ± 0.018
TAAGTTGGCT | 0.958 ± 0.023
TAAGTTTCCT | 1.07 ± 0.03
TAAGTTTGCA | 1.003 ± 0.0077
TAAGTTTTAT | 0.984 ± 0.021
TAAGTTTTGC | 0.979 ± 0.038
TAAGTTTTTT | 0.99 ± 0.02
TAATAAAATG | 0.99 ± 0.015

Sequence | switch fluorescence ratio
TAATAATCAA | 1.02 ± 0.051
TAATACGTTG | 1.03 ± 0.012
TAATAGAAAA | 1.011 ± 0.006
TAATAGACGG | 1 ± 0.026
TAATAGTAAT | 1.02 ± 0.011
TAATAGTTTG | 1.028 ± 0.0095
TAATATCATT | 1 ± 0.019
TAATATGATT | 0.999 ± 0.029
TAATATTCAA | 1.03 ± 0.014
TAATATTCGA | 0.995 ± 0.018
TAATATTGTT | 1.007 ± 0.0095
TAATCAAAGT | 1.02 ± 0.018
TAATCACCTA | 1.038 ± 0.0093
TAATCCAGAA | 1.01 ± 0.082
TAATCCATCG | 1.03 ± 0.049
TAATCGGCTC | 1 ± 0.03
TAATCGGCTG | 0.991 ± 0.069
TAATCGGTG | 0.9805 ± 0.0024
TAATCGTGGG | 1.02 ± 0.011
TAATCTAATA | 0.987 ± 0.046
TAATCTCCGG | 1.04 ± 0.04
TAATCTTGGG | 1 ± 0.011
TAATGAATAG | 1.01 ± 0.042
TAATGAATTC | 1.003 ± 0.0081
TAATGAGAAC | 0.974 ± 0.014
TAATGAGGTC | 0.99 ± 0.046

Sequence | switch fluorescence ratio
TAATGAGTTT | 1.006 ± 0.0016
TAATGATTGT | 0.982 ± 0.042
TAATGCGATG | 0.9852 ± 0.005
TAATGGATGT | 0.976 ± 0.027
TAATGGGGGC | 0.994 ± 0.018
TAATGGGGTT | 1 ± 0.024
TAATGGGTTA | 1 ± 0.037
TAATGGTGT | 1.02 ± 0.041
TAATGTGCAA | 1.09 ± 0.013
TAATGTGGGT | 0.967 ± 0.015
TAATGTTTAT | 0.996 ± 0.026
TAATTAGGGT | 1 ± 0.025
TAATTATCTT | 0.979 ± 0.058
TAATTATTCT | 1.02 ± 0.014
TAATTCACCA | 1.18 ± 0.18
TAATTCGACT | 1.02 ± 0.029
TAATTCGGTT | 1 ± 0.021
TAATTGAGAA | 0.986 ± 0.037
TAATTGGAGT | 0.972 ± 0.014
TAATTGGGTC | 1.024 ± 0.0024
TAATTGTAAG | 0.979 ± 0.017
TAATTGTCTA | 1 ± 0.043
TAATTTACCT | 1.275 ± 0.0075
TAATTTGAGG | 0.955 ± 0.012
TAATTTGTCA | 1.008 ± 0.0076
TAATTTTAGC | 0.9913 ± 0.0086

Sequence | switch fluorescence ratio
TAATTTTGGC | 0.99 ± 0.018
TACAAAAAGG | 0.981 ± 0.023
TACAAGCGTA | 0.992 ± 0.014
TACAAGGACG | 1.03 ± 0.098
TACAAGGGCA | 1.01 ± 0.037
TACAAGTCAA | 1.02 ± 0.017
TACAAGTTTG | 0.9965 ± 0.0053
TACAATTGAA | 1 ± 0.025
TACAATTTTT | 1.01 ± 0.028
TACACAGCGG | 1.05 ± 0.045
TACACGCGGG | 1.01 ± 0.048
TACACTTTGC | 1.027 ± 0.0079
TACAGAGGCA | 1.02 ± 0.031
TACAGGCGCT | 0.994 ± 0.015
TACAGGGACC | 1.022 ± 0.0034
TACAGGGCTC | 1.05 ± 0.024
TACAGGGGCC | 1 ± 0.022
TACAGGTTGT | 1.21 ± 0.19
TACAGTAGCT | 1.09 ± 0.011
TACAGTTTCG | 1.03 ± 0.05
TACATAAAAC | 1.011 ± 0.0025
TACATATTCG | 0.989 ± 0.041
TACCAAACGG | 2.23 ± 1.4
TACCACTTAA | 1.03 ± 0.035
TACCACTTTG | 1.24 ± 0.29
TACCCCAATT | 1.068 ± 0.0037

Sequence | switch fluorescence ratio
TACCGACATA | 1.189 ± 0.0084
TACCGCGGGG | 1.04 ± 0.043
TACCGGGCTT | 0.978 ± 0.02
TACCGGGGTC | 1 ± 0.042
TACCGGGTCT | 1.032 ± 0.005
TACCGGGTTT | 0.9914 ± 0.0059
TACCGTGGGT | 0.99 ± 0.021
TACCGTTGGG | 1.01 ± 0.038
TACCTACTCG | 1.18 ± 0.12
TACCTGGGTA | 0.948 ± 0.028
TACCTGGTTT | 1 ± 0.03
TACGAACTTT | 1.31 ± 0.06
TACGAATTTT | 1.02 ± 0.012
TACGAGTGCG | 1.04 ± 0.06
TACGAGTTCT | 0.984 ± 0.013
TACGATTTAA | 1.01 ± 0.026
TACGCGGGCA | 1.07 ± 0.11
TACGCGTAAT | 1.012 ± 0.0052
TACGCTGACG | 1.13 ± 0.087
TACGCTTATA | 1.19 ± 0.042
TACGCTTCAT | 1.02 ± 0.011
TACGGAAATG | 1.0398 ± 0.00093
TACGGAAGGT | 1.06 ± 0.034
